Among the data in the Immune Epitope Database (IEDB) are Kd values, retold here.

By Kd is commonly meant a measure of binding affinity in units of concentration. High values mean weaker binding, low ones tighter binding.

In assay [1] the target is HLA-B*08:01. In words: IEDB peptide-MHC binding, purified MHC/competitive/fluorescence; filed as Kd, often an IC50 or EC50 that approximates it; ≥ and ≤ were set here for values at or beyond the usual limits of such assays. The following applies: source organism: Escherichia coli 536.
For assay [2], the target named is HLA-B*07:02. The assay is described as above.
The target of assay [3] is HLA-B*51:01. Described as above. The note with it: source organism: Escherichia coli 536.
The target in assay [4] is HLA-B*57:01. In words: IEDB peptide-MHC binding, purified MHC/direct/fluorescence; filed as Kd, often an IC50 or EC50 that approximates it; ≥ and ≤ were set here for values at or beyond the usual limits of such assays.
In assay [5] the target is HLA-A*02:16. Described as above.
For assay [6], the target named is HLA-B*18:01. The description is as above.
Assay [7] has as its target HLA-B*15:01. Described as above.
For assay [8], the target named is HLA-A*02:12. Described as above.
Assay [9] addresses HLA-B*51:01. The description is as above. The following applies: source organism: Encephalitozoon cuniculi GB-M1.
The target of assay [10] is HLA-A*02:19. Described as above.
Assay [11] concerns the target HLA-A*24:03. The description is as above.
Assay [12] has as its target HLA-B*27:03. The assay is described as above.
For assay [13], the target named is HLA-B*46:01. Described as above.
In assay [14] the target is HLA-A*26:01. Described as above.
The target of assay [15] is HLA-A*03:01. The assay is described as above.
Assay [16] has as its target HLA-B*39:01. Described as above.
The target in assay [17] is HLA-B*15:17. The description is as above.
Assay [18] has as its target HLA-A*69:01. The assay is described as above. The following applies: source organism: Yersinia enterocolitica subsp. enterocolitica 8081.
The target in assay [19] is HLA-A*02:01. The assay is described as above. The following applies: source organism: Yersinia enterocolitica subsp. enterocolitica 8081.
The target of assay [20] is HLA-A*02:11. The description is as above. The following applies: source organism: Yersinia enterocolitica subsp. enterocolitica 8081.
Assay [21] concerns the target HLA-A*68:02. The description is as above. The following applies: source organism: Yersinia enterocolitica subsp. enterocolitica 8081.
Assay [22] has as its target HLA-A*02:03. Described as above. The following applies: source organism: Yersinia enterocolitica subsp. enterocolitica 8081.
Assay [23] addresses HLA-B*15:01. In words: IEDB peptide-MHC binding, purified MHC/competitive/fluorescence; filed as Kd, often an IC50 or EC50 that approximates it; ≥ and ≤ were set here for values at or beyond the usual limits of such assays. The following applies: source organism: Yersinia pestis Nepal516.
Assay [24] addresses HLA-A*01:01. Described as above. The note with it: source organism: Yersinia pestis Nepal516.
The target of assay [25] is HLA-A*03:01. Described as above. The note with it: source organism: Yersinia pestis Nepal516.
[26] abbreviates: source organism: Encephalitozoon cuniculi GB-M1.
The mark [27] stands for this setting: source organism: Yersinia enterocolitica subsp. enterocolitica 8081.
The mark [28] stands for this setting: source organism: Mycobacterium tuberculosis.

With HPYKIPATV, the Kd in assay [1] came out at 0.398 µM; in [2] (source organism: Escherichia coli 536), 0.197 µM; in assay [3], 0.309 µM.
For HPYVFCALL, the Kd was at least 20 µM in [4] (setting [26]); at least 20 µM in assay [5] (setting [26]); at least 20 µM in [6] (setting [26]); at least 20 µM in assay [7] (setting [26]); at least 20 µM in [8] (setting [26]); 2.92 µM in assay [9]. The Kd in assay [10] (setting [26]), in assay [11] (setting [26]), in assay [12] (setting [26]), in assay [13] (setting [26]), in [14] (setting [26]) and in [15] (setting [26]) was at least 20 µM each time.
In the case of KSRQGDTKV, the Kd is at least 20 µM in [16] (setting [27]); at least 20 µM in assay [4] (setting [27]); 0.28 µM in [17] (setting [27]); at least 20 µM in assay [5] (setting [27]); at least 20 µM in assay [6] (setting [27]); at least 20 µM in [18]. Further, the Kd in [7] (setting [27]), in assay [8] (setting [27]), in assay [10] (setting [27]), in assay [11] (setting [27]), in [19] and in assay [12] (setting [27]) was at least 20 µM each time. In addition, the Kd in assay [20], in [13] (setting [27]), in [14] (setting [27]), in assay [21], in assay [22] and in [15] (setting [27]) was at least 20 µM each time.
As to LPSWLLAPV, the Kd in assay [2] (source organism: Salmonella enterica subsp. enterica serovar Typhi) came out at 0.066 µM.
On to NTLGITHLY, for which the Kd is 3.02 µM in assay [23], 0.0448 µM in assay [24] and at least 20 µM in assay [25].
Consider SIYYTLVRM, for which the Kd in assay [16] (setting [28]) is at least 20 µM; in assay [4] (setting [28]) it was at least 20 µM; in assay [17] (setting [28]), 0.256 µM; in [6] (setting [28]), at least 20 µM; in assay [7] (setting [28]), at least 20 µM; in [8] (setting [28]), at least 20 µM. The Kd in [10] (setting [28]), in assay [12] (setting [28]), in assay [13] (setting [28]) and in assay [14] (setting [28]) was at least 20 µM in each case.
